From patent publication US10669350B2, “Antigen-binding constructs that bind to and inhibit catalase and/or superoxide dismutase as well as pharmaceutical compositions containing them for tumor therapy” (priority 2015, dated 2020)

T1: human catalase (Homo sapiens, UniProt P04040)
T1 sequence (P04040 2-527 limits assumed): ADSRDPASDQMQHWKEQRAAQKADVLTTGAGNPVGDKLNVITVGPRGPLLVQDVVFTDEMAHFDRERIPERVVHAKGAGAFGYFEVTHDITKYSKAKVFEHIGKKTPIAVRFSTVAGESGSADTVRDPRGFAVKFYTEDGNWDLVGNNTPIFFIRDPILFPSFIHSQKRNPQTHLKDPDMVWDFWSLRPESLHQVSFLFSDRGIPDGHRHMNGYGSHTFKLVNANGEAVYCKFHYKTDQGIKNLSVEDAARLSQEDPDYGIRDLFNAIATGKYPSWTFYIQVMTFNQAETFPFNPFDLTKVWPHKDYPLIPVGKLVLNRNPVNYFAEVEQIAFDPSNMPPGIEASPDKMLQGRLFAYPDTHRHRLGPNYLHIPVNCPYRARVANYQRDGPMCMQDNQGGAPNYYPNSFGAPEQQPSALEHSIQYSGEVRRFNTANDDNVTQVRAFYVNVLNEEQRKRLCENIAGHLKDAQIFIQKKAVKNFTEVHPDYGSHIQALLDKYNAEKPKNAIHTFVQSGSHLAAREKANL


Key:
human SOD1 [1] = biological target: T2, human SOD1 (Homo sapiens, UniProt P00441); experiment: ELISA selection of clones binding to human SOD1
Description: The preparation was by immunizing alpacas with human SOD1 (SOD1=Cu/ZnSOD [EC 1.15.1.1] purified from human erythrocytes, obtained from Sigma (Schnelldorf), catalogue number S 9636) under supervision of a veterinary, obtaining RNA from the B cells of the animals, reverse transcription, cloning in E. coli and isolation via the phage display technology. […] In a second run, by employing the cell culture system described by Heinzelmann and Bauer (Multiple protective functions of catalase against intercellular apoptosis-inducing ROS signaling of human tumor cells, Biol. Chem. 391, 675-693, 2010) it was checked which of the single domain VHH fragments binding to SOD actually results in an inhibition of SOD, what is expressed in the tumor system used as ROS-dependent apoptosis induction in the cells, since by the inhibition of SOD the concentration of free superoxide anions dramatically increases due to the absence of the enzymatic dismutation and results in a parallel indirect inhibition of catalase. In the following, this is expressed as ROS-dependent apoptosis induction. In a further control trial the specific inhibition of SOD by recombinant single domain VHH fragments was verified by the fact that the increasing effect of these fragments on apoptosis induction by exogenously added HOCl was examined, as described in Bauer 2013 (HOCl-dependent singlet oxygen and hydroxyl radical generation modulate and induce apoptosis of malignant cells. Anticancer Res 33: 3589-3602, 2013).

human SOD1 [2] = biological target: T2, human SOD1; experiment: Check for inhibition (neutralization) of SOD, ROS-dependent apoptosis induction and HOCl control trial; type: cell-based; set-up: endogenous in cells; host or cells: MKN-45 human gastric carcinoma cells
Description: Thus, the inhibition of the SOD mediated by single domain VHH or Fab fragments (comparison) can be determined by the fact that the apoptosis induction of tumor cells by exogenously added HOCl is employed as the test system. HOCl in a concentration depending manner induces apoptosis that is based on the interaction between HOCl and superoxide anions that results in the formation of aggressive hydroxyl radicals (Bauer G. HOCl-dependent singlet oxygen and hydroxyl radical generation modulate and induce apoptosis of malignant cells. Anticancer Res 33: 3589-3602, 2013). […] That is, the neutralizing effect of single domain VHH or Fab fragments can be determined by checking whether the inhibition of the apoptosis is abolished again by the single domain VHH or Fab fragments to be tested. The quantitative employment of said test system requires linking several simple steps the skilled person is familiar with. In the first step the concentration of commercially available HOCl (or sodium hypochlorite that sufficiently forms HOCl in medium) is determined that generates a significant quantifiable apoptosis signal within a reasonable trial time (1-2 hours). […] As soon as the first two steps have been satisfactorily performed there can take place the actual test of the inhibiting effect of the single domain VHH or Fab fragments. For that, selected concentrations of the fragments to be tested are pre-incubated for 20 minutes with the optimal concentration of SOD determined in advance in step #2. Subsequently, said mixture is added to the test cells. Thereafter, HOCl is added and the apoptosis induction is determined. […]
The preparation was by immunizing alpacas with human SOD1 (SOD1=Cu/ZnSOD [EC 1.15.1.1] purified from human erythrocytes, obtained from Sigma (Schnelldorf), catalogue number S 9636) under supervision of a veterinary, obtaining RNA from the B cells of the animals, reverse transcription, cloning in E. coli and isolation via the phage display technology. […] In the following, this is expressed as ROS-dependent apoptosis induction. […]

[3] = system: MKN-45 gastric carcinoma cells; experiment: Standard preparation for autocrine ROS-controlled apoptosis induction in tumor cells (percentage of apoptotic cells); type: cell-based, human
Experimental: The experiments shown in FIG. 13-24 were carried out with a standard preparation for the apoptosis induction that is based on the method performed in Heinzelmann and Bauer 2010. The tumor cells used were taken from an optimally growing semi-sealed culture, centrifuged and placed in fresh medium. The test was performed in 96-well cell culture plates with 12 500 MKN-45 cells/100 μl medium or 10 000 SHEP cells/100 μl medium. MKN-45 cells grow in suspension, SHEP cells are adherent. The tests with SHEP cells were started as soon as the cells had grown on. By adding increasing concentrations of single domain VHH fragments that either inhibit catalase or SOD the protection of the tumor cells from their own ROS signaling was annulled so that based on the cell-owned extracellular superoxide anion production the NO/peroxynitrite signal path and the HOCl path (with MKN-45 cells) or in case of the SHEP cells only the NO/peroxynitrite path could start when the cells were incubated at 37° C. The analysis of the signal paths was carried out by the application of inhibitors of the NADPH oxidase (AEBSF), the HOCl scavenger taurine, the peroxynitrite scavenger FeTPPS and the singlet oxygen scavenger histidine. In some experiments for comparison instead of the single domain VHH fragments either recombinant Fab fragments or monoclonal antibodies were applied. This is indicated in the respective illustrations.
Double preparations were examined at the times shown in the text by means of phase contrast reverse microscopy for the percentage of apoptotic cells. Here, the classical apoptosis criteria described and documented in Heinzelmann and Bauer 2010 such as condensation of the nucleus, fragmentation of the nucleus, and membrane blebbing were used. Per single preparation at least 250 randomly selected cells were examined for the presence of apoptosis features. […]

human catalase [4] = biological target: T1, human catalase; experiment: ELISA selection of clones binding to human catalase
Description: […] […] In a second run, by employing the cell culture system described by Heinzelmann and Bauer (Heinzelmann S. and Bauer G. Multiple protective functions of catalase against intercellular apoptosis-inducing ROS signaling of human tumor cells, Biol. Chem. 391, 675-693, 2010) it was checked which one of the single domain VHH fragments binding to catalase actually results in an inhibition of the catalase, what is expressed as ROS-dependent apoptosis induction in the cells. […] The clones underlying the single domain VHH fragments were sequenced by standard methods and the amino acid sequence was determined therefrom.

human catalase [5] = biological target: T1, human catalase; experiment: Check for inhibition (neutralization) of catalase, expressed as ROS-dependent apoptosis induction in cell culture system; type: cell-based; set-up: catalase-neutralizing single domain VHH fragments only neutralize the membranous catalase of tumor cells; endogenous in cells; host or cells: MKN-45 human gastric carcinoma cells
Description: For the determination of the neutralizing effect of single domain VHH or Fab fragments directed against catalase a test system is suitable that is based on the apoptosis-inducing effect of H2O2 and the degradation of H2O2 by catalase. Here, as the cellular test system both non-malignant and malignant cells can be employed. It is only required that apoptosis induction is quantitatively determinable in the selected cell system. As the H2O2 source, H2O2-generating glucose oxidase (GOX) is preferred over the direct addition of H2O2, because the continuous production of H2O2 by GOX (by using glucose from the culture medium of the cells) allows a very precise adjustment of the H2O2 flux. The test system is based on the inhibition of the apoptosis induction by GOX mediated by catalase and the restoration of the apoptosis induction by catalase-neutralizing single domain VHH or Fab fragments. […] For that, in general depending on the cell system, GOX concentrations between 0.1 and 40 mU/ml are required. In a second step, the concentration of human catalase is determined that is just sufficient to abolish the effect achieved by GOX. […] After successful determination of the suitable concentrations of GOX and catalase then the actual experiment for the determination of the catalase-neutralizing effect of single domain VHH or Fab fragments can be performed. For that, the selected catalase concentration is pre-incubated for 20 minutes with selected concentrations of the single domain VHH or Fab fragments to be tested. Subsequently, said mixture together with the concentration of GOX determined to be suitable is added to the cells and apoptosis induction is measured. A reliable neutralizing effect of the single domain VHH or Fab fragments is obtained if the inhibiting effect of the catalase on the GOX-mediated apoptosis induction was abolished by at least 90%, i.e. if 90% of the apoptosis induction value is achieved that is shown in control preparations without addition of catalase. If there is achieved an abolition of the inhibiting effect of catalase of at least 50% there may be assumed a significant inhibiting effect of the tested single domain VHH or Fab fragment. […]
[…] In a second run, by employing the cell culture system described by Heinzelmann and Bauer (Heinzelmann S. and Bauer G. Multiple protective functions of catalase against intercellular apoptosis-inducing ROS signaling of human tumor cells, Biol. Chem. 391, 675-693, 2010) it was checked which one of the single domain VHH fragments binding to catalase actually results in an inhibition of the catalase, what is expressed as ROS-dependent apoptosis induction in the cells. […] The clones underlying the single domain VHH fragments were sequenced by standard methods and the amino acid sequence was determined therefrom.

T2 sequence (P00441 2-154 limits assumed): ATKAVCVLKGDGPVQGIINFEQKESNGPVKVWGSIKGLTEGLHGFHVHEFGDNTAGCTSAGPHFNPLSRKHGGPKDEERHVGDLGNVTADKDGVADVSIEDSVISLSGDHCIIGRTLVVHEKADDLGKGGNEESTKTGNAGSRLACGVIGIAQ

| Molecule | binding to human SOD1 (human SOD1 [1]) | neutralization (inhibition) of human SOD1 (human SOD1 [2]) | apoptosis induction in the presence of peroxynitrite scavenger FeTPPS ([3]; 25 μM FeTPPS) | apoptosis induction in the presence of NOX1 inhibitor AEBSF ([3]; 100 μM AEBSF) | apoptosis induction in the presence of singlet oxygen scavenger histidine ([3]; 2 mM histidine) | apoptosis induction in the presence of HOCl scavenger taurine ([3]; 50 mM taurine) | apoptosis induction in combination with 0.005 pg/ml of the complementary single domain VHH fragment ([3]; 3.5 hours, FIG. 18) | concentration at which both signal paths overlap ([3]; FIG. 14) [pg/mL] | concentration from which no substantial inhibition by FeTPPS but very strong inhibition by taurine (HOCl path) ([3]; FIG. 14) [pg/mL] | concentrations at which singlet oxygen seems to play a role ([3]; FIG. 14) [pg/mL] | concentration range of the second increase of the apoptosis ([3]; FIG. 14, not inhibited by taurine) [pg/mL] | optimum range of the apoptosis induction ([3]; FIGS. 14A and B, 3.5 hours) [pg/mL] | optimum conc. ([3]; Table 1, concentration necessary for optimum apoptosis induction, taken from FIGS. 13A, 13B, 15A, 15B, 20) [pg/mL] | optimum conc. ([3]; Table 2, FIG. 20 experiment, 3.5 hours) [pg/mL] | apoptosis induction in MKN-45 cells ([3]; increasing concentrations, 3-4 hours at 37° C., 5% CO2) | ROS signaling path induced ([3]; inhibitor analysis) | binding to human catalase (human catalase [4]) | neutralization (inhibition) of human catalase (human catalase [5]) |
| --- | --- | --- | --- | --- | --- | --- | --- | --- | --- | --- | --- | --- | --- | --- | --- | --- | --- | --- |
| aSODcb0987: single domain VHH fragment binding to human SOD1, but not neutralizing; SEQ ID NO: 14 (protein, SOD binding) VHH: MAQVQLVESGGGIVQPGGSLRLSCVASESISEIDAMYWHRQAPGKERELVAGITNDGTRYYADSVKGRFTISRDNAKSTLYLQMNSLKFEDTAMYYCAALPNPPPGYWGQGTQVTVSSKKKHHHHHH | bind to human SOD1 | do not neutralize it | – | – | – | – | – | – | – | – | – | – | – | – | – | – | – | – |
| aCATcb0972: single domain VHH fragment that binds to and neutralizes human catalase; SEQ ID NO: 10 (protein, catalase binding) VHH: MAQVQLVESGGGLVQAGGSLRLSCAASERTFNTYGMGWFRQAPGKEREFVATISWSGDSTYYADSVKGRFTISRDNAKNTMYLQMNSLKPEDTAVYYCNANSEYGDSYWGQGTQVTVSSKKKHHHHHH | – | – | only in the left part of the optimum curve results in a strong inhibition and then, changes the optimum curve of apoptosis induction into a plateau curve | inhibited by the NOX1 inhibitor AEBSF in the entire range of concentrations | does not result in an inhibition of apoptosis, but changes the optimum curve into a plateau curve | does not inhibit in the left range of concentrations of the optimum curve, but then results in a strong inhibition of the apoptosis in the entire further range of the optimum curve | noteworthy synergistic effect | 0.37 | ≥ 0.75 | > 0.75 | ≥ 6.2 | 0 to 6.2 | 0.4 | 0.17 | induces apoptosis in the form of an optimum curve and a subsequent second increase | via the NO/peroxynitrite and HOCl path | bind to human catalase | neutralize it |
